Assays:
[1] = as provided by manufacturer (Mimotopes); cited from earlier work
Aβ = Aβ (Homo sapiens, UniProt P05067); assay: Aβ ThioflavinT fluorescence (fibrillization of Aβ); type: biochemical; conditions: 1:10 Aβ:peptide; for effect on the fibrillization of Aβ: ThioflavinT fluorescence after 72 hrs, comparison among αB crystallin and five peptides
Experimental: Aβ Thioflaviin T fluorescence. Aβ fibrils were grown in the presence and absence of αB crystallin and peptides in conditions similar to that previously described for the presence of αB crystallin. Bakthisaran et al., Biochem J, 2005. Peptides were dissolved to 9.1 mM in trifluorethanol (TFE) and diluted to 0.91 mM stock solutions in 50 mM PBS, 100 mM NaCl, pH 7.4. 3.5 mg of ThioflavinT was dissolved in 100 μl of 50 mM Glycine pH 8.5. A stock solution of 1 mg/ml (0.22 mM) Aβ was prepared. 20 μl Aβ, 50 μl chaperone, 2 μl ThioflavinT was mixed with 28 μl 50 mM PBS, 100 mM NaCl, pH 7.4. Fluorescence was read using a Beckman Coultier DTX 880 multimode detector. Samples were heated at 50° C. for 72 hours and fluorescence was read again.
The fibrillization of Aβ was measured as fluorescence of the fluorescent dye ThioflavinT from solutions containing 1:10 monomeric molar ratio of Aβ:peptide. In the absence of Aβfibrils, ThioflavinT had little or no fluorescence. The fluorescence of the ThioflavinT bound to Aβ fibrils in the absence of any other molecule after 72 hrs was set to 100%. […] Fibril formation=ΔfluorescenceAβ (with chaperone)*100/ΔfluorescenceAβ (without chaperone).

βL crystallin = assay: Chaperone assay, thermal aggregation of βL crystallin; type: biochemical; conditions: light scattering at λ=340 nm; 1:10 target protein:peptide; comparison among five peptides
Experimental: Chaperone Assays. Chaperone assays of the five peptides were performed using previously established methods with minor modifications. Muchowski et al., J Mol Biol 289: 397-411, 1999. A 1:1 monomeric molar ratio of chaperone: target protein was determined to be the optimum ratio and all subsequent chaperone assays of the β3 mutants were performed in triplicate and at a 1:1 monomeric molar ratio of chaperone: target protein in a 96-well ELISA micro-titer plate. […] of the chaperone and βL crystallin were mixed in a total volume of 200 μL buffer (5 mM PBS, pH 7.0). Light scattering at λ=340 nm was measured using a Multiskan MCC/340 plate reader before heating (time=0). After the first reading, the plate was heated at 50° C. and readings were taken at fifteen minute intervals for one hour.
The ability of the peptides to suppress the thermal aggregation of βL crystallin was measured spectrophotometrically as light scattering at λ=340 nm from solutions containing 1:10 monomeric molar ratio of target protein: peptide.

ADH = biological target: T1, ADH (Equus caballus, UniProt P00327); assay: Chaperone assay, thermal aggregation of ADH; type: biochemical; conditions: 50:1 molar ratio of peptide:ADH; 50° C., sixty minutes; light scattering λ=340 nm; no peptide = 0% protection
T1 construct: purchased
Experimental: (§1) The chaperone activity of the peptides was measured as their ability to protect against the thermal aggregation of three chaperone target proteins βH crystallin, ADH and CS in chaperone assays performed at 50° C. (FIG. 19). A non-interactive αB crystallin sequence 111HGKHEERQDE120 was used as the negative control in the chaperone assays (FIG. 19). Based on near and far UVCD, the three target proteins unfolded in the order: CS>>>ADH>>βH crystallin when they were heated at 50° C. for sixty minutes (FIGS. 15 and 16). The thermal aggregation of βH crystallin, ADH and CS was measured as light scattering at λ=340 nm in the presence and absence of each peptide. The chaperone activity of each peptide was calculated as percent protection in which the aggregation of each target protein in the absence of any peptides was set at 0% protection (FIG. 19). The interactive peptides 73DRFSVNLDVKHFS85 and 131LTITSSLSDGV141 were effective inhibitors of aggregation of all three chaperone target proteins.
(§2) A (top left): thermal aggregation of chaperone target proteins βH crystallin, ADH and CS in the absence of peptides was measured as light scattering at λ=340 nm. Each target protein was heated at 50° C. for sixty minutes in the absence or presence of one of the peptides. […] The chaperone activity of each peptide was calculated as percent protection in which the aggregation of each target protein in the absence of any peptides was set at 0% protection. The ability of the 73DRFSVNLDVKHFS85, 131LTITSSLSDGV141 and 111HGKHEERQDE120 to protect against the thermal aggregation of βH crystallin (B: top right), ADH (C: bottom left) and CS (D: bottom right) were tested in vitro (vertical bars). […] A 10:1 molar ratio of peptide:target protein was sufficient in conferring significant protection against the aggregation of CS by 73DRFSVNLDVKHFS85 and 131LTITSSLSDGV141.

amyloid beta (1-42) = amyloid beta (1-42) (Homo sapiens, UniProt P05067); assay: Cu+++-induced aggregation of amyloid-beta (1-42) in vitro, light scattering; type: biochemical; conditions: 100 mM Cu+++, 360 nm; for preventing the Cu+++-induced aggregation of amyloid-beta: 1:1 and 1:10 molar ratio of amyloid-beta to peptide; for preventing the Cu+++ induced aggregation of amyloid-beta: 10:1 molar ratio of amyloid-beta to peptide
Experimental: In vitro assays were also performed to measure the ability of the human αB crystallin derived peptides identified in Example 1 to inhibit aggregation of Cu^+++-induced amyloid beta (1-42) aggregation. Aggregation assays were performed using routine procedures, in the presence or absence of a synthesized peptide identified in Example 1, in the presence of 100 mM Cu^+++. Aggregation was measured spectrophotometrically as light scattering at a wavelength of 360 nm. Aggregated amyloid-beta was assigned a value of 100% aggregation and used to normalize aggregation in the presence of synthesize peptides.
Aggregation was measured spectrophotometrically as light scattering at a wavelength of 360 nm. Aggregated amyloid-beta was assigned a value of 100% aggregation and used to normalize aggregation in the presence of synthesize peptides. Aggregation was plotted as a bar graph with the standard error for duplicate experiments. The 1st vertical bar is the scattering measured for aggregated amyloid-beta (100% aggregation) in the presence of 100 mM Cu^+++. The 2nd-4th vertical bars is the scattering from amyloid-beta in the presence of wild type recombinant human αB crystallin. The 5th-13th vertical bars are the scattering of amyloid-beta in the presence of the synthetic peptides, DRFSVNLDVKHFS or LTITSSLSDGV or HGKHEERQDE at selected concentrations. A prefix of 10× represents a 10:1 molar concentration of amyloid-beta to either wild type αB crystallin or its peptides. A prefix of 1X represents a 1:1 molar concentration of amyloid-beta to either wt αB crystallin or its peptides. A prefix of 0.1× represents a 1:10 molar concentration of amyloid-beta to either wt αB crystallin or its peptides.

βH crystallin = assay: Chaperone assay, thermal aggregation of βH crystallin; type: biochemical; conditions: 50:1 molar ratio of peptide:βH crystallin; 50° C., sixty minutes; light scattering λ=340 nm; no peptide = 0% protection
Experimental: as §1, §2

γD crystallin = biological target: T2, γD crystallin (Homo sapiens, UniProt P07320); assay: γD crystallin ThioflavinT fluorescence (fibrillization of γD crystallin); type: biochemical; conditions: ThioflavinT; 50° C. for 72 hours; 1:1 γD crystallin:peptide; no chaperone 888,803,840
T2 sequence (P07320 1-174): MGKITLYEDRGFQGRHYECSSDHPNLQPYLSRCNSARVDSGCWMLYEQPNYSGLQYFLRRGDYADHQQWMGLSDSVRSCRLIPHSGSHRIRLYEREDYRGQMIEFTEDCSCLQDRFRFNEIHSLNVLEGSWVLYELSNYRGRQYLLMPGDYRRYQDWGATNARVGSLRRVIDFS
Experimental: γD crystallin Thioflaviin T fluorescence. γD crystallin fibrils were formed in a similar way to that of γ crystalline. Meehan et al., J Biol Chem 279: 3413-3419, 2004. Peptides were dissolved to […] IN tfe AND DILUTED to 0.91 mM stock solutions in 10% TFE, pH 2.0.
3.5 mg of ThioflavinT was dissolved in 100 μL of 50 mM Glycine pH 8.5. A stock solution of 1 mg/ml (0.22 mM) Aβ was prepared. 20 μl Aβ, 5 μl chaperone, 2 μl ThioflavinT was mixed with 73 μL 10% TFE, pH 2.0. Fluorescence was read using a Beckman Coultier DTX 880 multimode detector. Samples were heated at 50° C. for 72 hours and fluorescence was read again.
The fibrillization of γD crystallin was measured as fluorescence of the fluorescent dye ThioflavinT from solutions containing 1:1 monomeric molar ratio of γD crystallin:peptide. In the absence of fibrils ThioflavinT had little or no fluorescence. The fluorescence of the ThioflavinT bound to γD crystallin fibrils in the absence of any other molecule after 72 hrs was set to 100%. […] Fibril formation=ΔfluorescenceγD crystallin (with chaperone)*100/ΔfluorescenceγD crystallin (without chaperone).

CS = biological target: T3, CS (Sus scrofa, UniProt P00889); assay: Chaperone assay, thermal aggregation of CS; type: biochemical; conditions: 10:1 molar ratio of peptide:CS; 50° C., sixty minutes; light scattering λ=340 nm; no peptide = 0% protection
T3 construct: purchased
T3 sequence (P00889 28-464): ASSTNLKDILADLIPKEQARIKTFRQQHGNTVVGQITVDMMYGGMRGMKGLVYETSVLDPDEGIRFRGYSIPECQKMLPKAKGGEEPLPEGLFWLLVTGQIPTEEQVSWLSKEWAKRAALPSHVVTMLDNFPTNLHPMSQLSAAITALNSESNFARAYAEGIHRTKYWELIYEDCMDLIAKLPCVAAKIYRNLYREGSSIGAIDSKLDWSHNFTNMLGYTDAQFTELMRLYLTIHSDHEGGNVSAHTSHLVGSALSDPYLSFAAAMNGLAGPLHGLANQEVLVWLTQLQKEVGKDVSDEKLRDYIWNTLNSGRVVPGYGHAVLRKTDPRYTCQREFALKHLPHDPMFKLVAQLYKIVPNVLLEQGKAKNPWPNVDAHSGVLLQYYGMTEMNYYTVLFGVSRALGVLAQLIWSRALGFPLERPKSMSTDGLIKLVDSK
Experimental: as §1
A (top left): thermal aggregation of chaperone target proteins βH crystallin, ADH and CS in the absence of peptides was measured as light scattering at λ=340 nm. […] The chaperone activity of each peptide was calculated as percent protection in which the aggregation of each target protein in the absence of any peptides was set at 0% protection. […]

T1 sequence (P00327 whole entry): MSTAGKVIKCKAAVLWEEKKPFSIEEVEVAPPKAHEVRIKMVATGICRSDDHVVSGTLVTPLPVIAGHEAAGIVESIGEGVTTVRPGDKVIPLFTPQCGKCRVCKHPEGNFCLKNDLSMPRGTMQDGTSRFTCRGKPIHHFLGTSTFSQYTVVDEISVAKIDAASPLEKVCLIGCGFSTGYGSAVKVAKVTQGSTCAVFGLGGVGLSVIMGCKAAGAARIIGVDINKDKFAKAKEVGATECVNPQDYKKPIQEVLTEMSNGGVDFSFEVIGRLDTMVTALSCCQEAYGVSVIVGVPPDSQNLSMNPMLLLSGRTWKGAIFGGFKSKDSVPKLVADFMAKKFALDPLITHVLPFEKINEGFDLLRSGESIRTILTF

| Sequence | Hydrophobicity [1] | effect on the fibrillization of Aβ (Aβ) | effect on the thermal aggregation of βL crystallin (chaperone activity) (βL crystallin) | percent protection against thermal aggregation of ADH (ADH) | preventing the Cu+++-induced aggregation of amyloid-beta (amyloid beta (1-42)) | preventing the Cu+++ induced aggregation of amyloid-beta (amyloid beta (1-42)) | percent protection against thermal aggregation of βH crystallin (βH crystallin) | Δfluorescence (Aβ) (Aβ; ThioflavinT, 50° C. for 72 hours, no chaperone 1,324,974,048) | Δfluorescence (γD crystallin) (γD crystallin) | percent protection against thermal aggregation of CS (CS) |
| --- | --- | --- | --- | --- | --- | --- | --- | --- | --- | --- |
| HFSPEELK [Peptide 42] | 0.25 |  |  |  |  |  |  |  |  |  |
| DRFSVNLDVKHFS |  | strongest effect | slightly lower than the HG peptide | approximately 30% | equally effective | less effective | approximately 30% |  |  |  |
| LTITSSLSDGV |  |  | slightly lower than the HG peptide | approximately 30% | equally effective | less effective | approximately 30% | 352,301,312 | 675,352,992 |  |
| HGKHEERQDE |  | weakest effect | strongest effect | No protection | equally effective | less effective | No protection |  |  | partial protection |

— patent publication US20080227700A1, “Compositions and Methods for Treatment of Protein Misfolding and Protein Aggregation Diseases” (priority 2004, published 2008)
